Source: US20210032664, “ENGINEERED MEGANUCLEASES WITH RECOGNITION SEQUENCES FOUND IN THE HUMAN BETA-2 MICROGLOBULIN GENE” (Precision Biosciences, Inc., published 2021)

What was measured:
Experiment in all cases: cell_activity; human T cells, 1 ug mRNA, day 3
Details in all cases: tags: N-terminal SV40 NLS
B2M 13-14x.93 QQY66 = target: T1, B2M 13-14x.93 QQY66 (Artificial Sequence)
T1 chain: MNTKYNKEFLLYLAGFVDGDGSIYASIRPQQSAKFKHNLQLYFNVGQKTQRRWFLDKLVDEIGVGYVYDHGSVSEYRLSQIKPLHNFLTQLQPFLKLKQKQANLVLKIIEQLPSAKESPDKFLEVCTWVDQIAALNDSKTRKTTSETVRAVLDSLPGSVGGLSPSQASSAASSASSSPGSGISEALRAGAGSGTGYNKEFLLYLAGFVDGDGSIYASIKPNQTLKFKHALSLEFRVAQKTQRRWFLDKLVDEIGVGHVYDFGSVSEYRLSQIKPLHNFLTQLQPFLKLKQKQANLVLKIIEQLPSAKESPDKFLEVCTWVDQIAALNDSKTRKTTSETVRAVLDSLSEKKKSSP
Protocol: (§1) To test these variants of B2M 13-14x.93, donor human T cells were stimulated with anti-CD3 and anti-CD28 antibodies for 3 days, then electroporated with mRNA encoding a given B2M 13-14 meganuclease (1 μg) using the Amaxa 4D-Nucleofector (Lonza) according to the manufacturer's instructions. At 3 days post-electroporation, cells were stained with an antibody recognizing β-2 microglobulin (BD Biosciences) and analyzed by flow cytometry.

B2M 13-14x.93 EQK66 = target: T2, B2M 13-14x.93 EQK66 (Artificial Sequence)
T2 chain: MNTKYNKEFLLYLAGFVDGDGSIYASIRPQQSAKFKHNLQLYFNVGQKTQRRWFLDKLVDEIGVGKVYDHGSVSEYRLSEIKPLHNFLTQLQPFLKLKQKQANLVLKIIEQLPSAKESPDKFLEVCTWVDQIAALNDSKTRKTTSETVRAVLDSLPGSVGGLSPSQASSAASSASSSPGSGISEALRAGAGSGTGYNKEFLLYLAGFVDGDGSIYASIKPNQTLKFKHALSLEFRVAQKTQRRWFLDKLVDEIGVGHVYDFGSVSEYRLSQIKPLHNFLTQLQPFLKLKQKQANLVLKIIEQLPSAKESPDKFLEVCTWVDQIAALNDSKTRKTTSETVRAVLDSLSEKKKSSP
Protocol: as §1

B2M 13-14x.93 EEK66 = target: T3, B2M 13-14x.93 EEK66 (Artificial Sequence)
T3 chain: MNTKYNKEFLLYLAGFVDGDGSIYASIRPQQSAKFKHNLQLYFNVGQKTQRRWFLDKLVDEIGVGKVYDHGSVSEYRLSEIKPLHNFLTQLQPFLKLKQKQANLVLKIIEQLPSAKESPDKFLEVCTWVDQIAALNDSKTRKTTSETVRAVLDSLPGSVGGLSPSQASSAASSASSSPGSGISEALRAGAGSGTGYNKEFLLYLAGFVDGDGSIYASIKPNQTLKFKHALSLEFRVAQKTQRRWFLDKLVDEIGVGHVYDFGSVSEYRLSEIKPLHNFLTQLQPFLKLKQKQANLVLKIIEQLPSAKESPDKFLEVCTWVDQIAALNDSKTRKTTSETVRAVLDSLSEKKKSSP
Protocol: as §1

B2M 13-14x.93 QQK66 = target: T4, B2M 13-14x.93 QQK66 (Artificial Sequence)
T4 chain: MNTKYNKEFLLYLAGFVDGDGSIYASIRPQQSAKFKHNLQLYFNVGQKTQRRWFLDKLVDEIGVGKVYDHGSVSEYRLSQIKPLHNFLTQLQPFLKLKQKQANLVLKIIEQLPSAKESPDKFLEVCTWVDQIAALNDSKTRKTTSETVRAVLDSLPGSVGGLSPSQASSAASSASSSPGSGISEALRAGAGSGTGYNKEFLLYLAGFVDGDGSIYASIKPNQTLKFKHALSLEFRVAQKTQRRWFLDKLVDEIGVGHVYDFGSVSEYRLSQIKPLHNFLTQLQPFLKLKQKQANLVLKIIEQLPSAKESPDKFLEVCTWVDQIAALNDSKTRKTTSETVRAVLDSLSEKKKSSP
Protocol: as §1

B2M 13-14x.93 QQR66 = target: T5, B2M 13-14x.93 QQR66 (Artificial Sequence)
T5 chain: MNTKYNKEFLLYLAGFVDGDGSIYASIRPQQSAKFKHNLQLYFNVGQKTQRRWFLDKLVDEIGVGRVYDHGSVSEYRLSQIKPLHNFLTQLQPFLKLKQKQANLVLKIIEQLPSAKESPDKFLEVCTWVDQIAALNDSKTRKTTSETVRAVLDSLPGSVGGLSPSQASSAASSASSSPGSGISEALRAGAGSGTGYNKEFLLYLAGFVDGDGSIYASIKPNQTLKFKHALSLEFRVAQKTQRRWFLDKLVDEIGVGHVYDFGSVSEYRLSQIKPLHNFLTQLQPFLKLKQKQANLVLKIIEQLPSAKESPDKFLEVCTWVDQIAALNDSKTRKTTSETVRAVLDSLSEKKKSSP
Protocol: as §1

B2M 13-14x.93 EQ = target: T6, B2M 13-14x.93 EQ (Artificial Sequence)
T6 chain: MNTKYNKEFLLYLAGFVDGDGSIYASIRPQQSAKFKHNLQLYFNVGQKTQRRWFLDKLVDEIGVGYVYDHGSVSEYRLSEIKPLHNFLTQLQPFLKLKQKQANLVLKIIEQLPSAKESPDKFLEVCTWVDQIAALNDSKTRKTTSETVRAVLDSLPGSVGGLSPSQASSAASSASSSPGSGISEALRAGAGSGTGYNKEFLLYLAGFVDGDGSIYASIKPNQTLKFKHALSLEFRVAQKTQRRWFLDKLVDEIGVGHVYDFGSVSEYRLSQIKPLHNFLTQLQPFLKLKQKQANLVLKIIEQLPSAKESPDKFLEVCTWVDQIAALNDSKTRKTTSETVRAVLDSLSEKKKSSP
Protocol: as §1

B2M 13-14x.93 QE = target: T7, B2M 13-14x.93 QE (Artificial Sequence)
T7 chain: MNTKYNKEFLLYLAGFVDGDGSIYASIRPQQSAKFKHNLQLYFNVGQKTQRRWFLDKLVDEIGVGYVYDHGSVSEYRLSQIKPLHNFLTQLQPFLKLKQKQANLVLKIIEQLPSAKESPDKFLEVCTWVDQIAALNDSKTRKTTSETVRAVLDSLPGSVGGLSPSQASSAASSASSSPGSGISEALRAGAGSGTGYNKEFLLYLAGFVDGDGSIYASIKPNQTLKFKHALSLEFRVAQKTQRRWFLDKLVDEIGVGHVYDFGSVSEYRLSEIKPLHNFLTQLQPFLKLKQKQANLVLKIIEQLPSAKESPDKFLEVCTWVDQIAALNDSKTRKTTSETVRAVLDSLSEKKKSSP
Protocol: as §1

B1: B2M 13-14 recognition sequence (dsDNA)
DNA 1: CTATCTCTTGTACTACACTGAA
DNA 2: TTCAGTGTAGTACAAGAGATAG
B1 gave an activity (B2M 13-14x.93 QQY66) of 19.2 % B2M-negative, an activity (B2M 13-14x.93 EQK66) of 6.81 % B2M-negative and an activity (B2M 13-14x.93 EEK66) of 3.84 % B2M-negative. For the same binder, the activity (B2M 13-14x.93 QQK66) was 2.64 % B2M-negative, the activity (B2M 13-14x.93 QQR66) was 5.05 % B2M-negative and the activity (B2M 13-14x.93 EQ) was 5.13 % B2M-negative. The activity (B2M 13-14x.93 QE) was 37 % B2M-negative.
